Data taken from article PMC3229523, “Identification of Lactoferricin B Intracellular Targets Using an Escherichia coli Proteome Chip” (PLoS ONE, 2011).
Ends that are not written are not given here. * marks the point of attachment. Biotin = O=C1N[C@H]2[C@H](CS[C@H]2CCCCC(=O)*)N1

Tests used:
Test in all cases: peptide or protein array; E. coli proteome chip: purified His-tagged proteins printed in duplicate on Fullmoon slides, blocked with 1% BSA; 10 nM N-terminal biotinylated LfcinB with 1% BSA, room temperature, 1 h; detected with DyLight 649-labeled streptavidin, ratio to DyLight 549-labeled anti-His antibody; ProCAT normalisation, local cut-off; triplicate chips
Conditions in all cases: both partners purified
YchA = biological target: T1, YchA (E. coli K-12, UniProt P0AGM5 1-269)
T1 construct: YchA, E. coli K-12
T1 sequence (looked up): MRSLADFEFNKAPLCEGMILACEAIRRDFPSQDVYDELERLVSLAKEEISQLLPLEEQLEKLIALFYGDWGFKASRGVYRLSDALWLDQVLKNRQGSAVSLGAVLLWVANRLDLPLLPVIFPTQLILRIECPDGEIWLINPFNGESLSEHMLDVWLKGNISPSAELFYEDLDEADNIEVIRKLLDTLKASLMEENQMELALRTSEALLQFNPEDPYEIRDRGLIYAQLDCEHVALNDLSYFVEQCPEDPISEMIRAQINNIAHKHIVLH

YhhI = biological target: T2, YhhI (E. coli K-12, UniProt P28912 1-378)
T2 construct: YhhI, E. coli K-12
T2 sequence (looked up): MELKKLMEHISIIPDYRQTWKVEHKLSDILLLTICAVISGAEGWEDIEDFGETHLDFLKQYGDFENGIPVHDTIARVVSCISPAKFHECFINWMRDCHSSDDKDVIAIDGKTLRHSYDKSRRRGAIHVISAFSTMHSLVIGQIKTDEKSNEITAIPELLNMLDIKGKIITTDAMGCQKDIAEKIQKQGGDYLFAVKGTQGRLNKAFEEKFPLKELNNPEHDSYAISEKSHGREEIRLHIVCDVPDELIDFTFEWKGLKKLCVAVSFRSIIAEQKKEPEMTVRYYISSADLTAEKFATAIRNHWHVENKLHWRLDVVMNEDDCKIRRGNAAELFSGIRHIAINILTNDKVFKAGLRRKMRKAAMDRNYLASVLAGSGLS

YfiQ = biological target: T3, YfiQ (E. coli K-12, UniProt P76594 1-886)
T3 construct: YfiQ, E. coli K-12
T3 sequence (looked up): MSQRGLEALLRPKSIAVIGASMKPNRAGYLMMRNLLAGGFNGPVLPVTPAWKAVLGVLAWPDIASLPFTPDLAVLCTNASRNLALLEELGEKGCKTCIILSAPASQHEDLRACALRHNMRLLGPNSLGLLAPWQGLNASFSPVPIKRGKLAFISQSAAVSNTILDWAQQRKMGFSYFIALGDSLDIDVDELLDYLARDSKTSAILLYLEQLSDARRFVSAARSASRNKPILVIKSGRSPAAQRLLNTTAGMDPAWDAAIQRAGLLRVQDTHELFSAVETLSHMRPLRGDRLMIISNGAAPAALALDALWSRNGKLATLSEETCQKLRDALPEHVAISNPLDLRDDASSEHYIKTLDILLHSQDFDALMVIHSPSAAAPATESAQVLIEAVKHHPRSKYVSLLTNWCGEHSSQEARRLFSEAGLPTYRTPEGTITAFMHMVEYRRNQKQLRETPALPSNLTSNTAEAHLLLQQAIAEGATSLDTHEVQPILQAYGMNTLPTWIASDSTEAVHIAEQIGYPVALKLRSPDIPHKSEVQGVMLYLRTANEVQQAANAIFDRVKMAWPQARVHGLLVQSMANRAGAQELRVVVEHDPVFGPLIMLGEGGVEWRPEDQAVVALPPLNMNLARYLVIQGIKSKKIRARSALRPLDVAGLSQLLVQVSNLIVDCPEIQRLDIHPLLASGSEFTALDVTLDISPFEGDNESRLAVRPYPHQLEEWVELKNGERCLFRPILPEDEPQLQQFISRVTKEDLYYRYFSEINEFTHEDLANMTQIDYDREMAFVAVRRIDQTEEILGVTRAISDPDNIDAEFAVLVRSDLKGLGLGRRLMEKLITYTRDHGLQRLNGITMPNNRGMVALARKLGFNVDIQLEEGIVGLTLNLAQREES

YehS = biological target: T4, YehS (E. coli K-12, UniProt P33355 1-156)
T4 construct: YehS, E. coli K-12
T4 sequence (looked up): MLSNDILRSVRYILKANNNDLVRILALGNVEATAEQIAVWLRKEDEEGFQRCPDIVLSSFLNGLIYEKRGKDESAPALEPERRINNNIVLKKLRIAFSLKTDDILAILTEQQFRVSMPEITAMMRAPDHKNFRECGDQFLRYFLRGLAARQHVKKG

HolB = biological target: T5, HolB (E. coli K-12, UniProt P28631 1-334)
T5 construct: HolB, E. coli K-12

Measured: binding result

T5 sequence (P28631 whole entry): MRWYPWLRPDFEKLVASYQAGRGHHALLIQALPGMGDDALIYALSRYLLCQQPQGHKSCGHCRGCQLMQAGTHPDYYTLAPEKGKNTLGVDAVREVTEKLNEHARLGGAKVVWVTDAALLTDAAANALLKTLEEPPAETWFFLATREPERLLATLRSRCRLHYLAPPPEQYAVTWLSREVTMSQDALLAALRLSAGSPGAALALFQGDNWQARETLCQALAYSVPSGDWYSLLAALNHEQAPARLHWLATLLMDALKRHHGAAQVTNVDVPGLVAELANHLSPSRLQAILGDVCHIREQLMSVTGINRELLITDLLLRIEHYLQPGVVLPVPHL

B1: N-terminal biotinylated Lactoferricin B (peptide, UniProt P24627 36-60, looked up)
peptide: Biotin-FKCRRWQWRMKKLGAPSITCVRRAF
modifications: ends and bridges not checked
notes: lactoferricin B (LfcinB), cationic antimicrobial peptide of 25 amino acids; also called biotinylated LfcinB; biotin-labeled LfcinB; source: bought: Kelowna Inc
binds: YchA | YhhI | YfiQ | YehS | HolB
